Assay results as given in US20050203009A1, “VPAC1 selective antagonists and their pharmacological methods of use” (Bayer Pharmaceuticals Corporation, priority 2004, published 2005).
Square brackets hold non-standard residues; d marks the D form. Primed or numbered codes have the meaning given here. Side chains are listed from the residue outwards. Ends that are not written are not given here. Peptide text beside a SMILES is read from it. maleimide″ = maleimide group of the 22 kD methoxy-PEG-maleimide reagent, which reacts with the Cys sulfhydryl to form a stable thioether linkage; maleimide = methoxy-PEG-maleimide (thioether to cysteine thiol)

T1: VPAC2 (Homo sapiens, UniProt P41587)
T1 construct: expressed in transfected cells; membranes
T1 sequence (P41587 24-438): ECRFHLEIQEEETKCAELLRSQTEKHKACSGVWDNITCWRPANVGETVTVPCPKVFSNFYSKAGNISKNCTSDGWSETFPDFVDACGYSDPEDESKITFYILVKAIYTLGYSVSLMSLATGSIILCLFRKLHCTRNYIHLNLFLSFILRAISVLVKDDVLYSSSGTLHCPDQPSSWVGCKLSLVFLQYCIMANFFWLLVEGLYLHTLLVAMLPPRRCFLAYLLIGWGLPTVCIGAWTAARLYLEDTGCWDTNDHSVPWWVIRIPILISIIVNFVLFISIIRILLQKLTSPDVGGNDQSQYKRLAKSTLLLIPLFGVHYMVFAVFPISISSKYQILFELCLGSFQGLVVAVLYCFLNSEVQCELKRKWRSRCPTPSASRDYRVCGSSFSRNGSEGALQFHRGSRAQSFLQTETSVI

T2: human VPAC1 (human, UniProt P32241 31-457)
T2 sequence (looked up): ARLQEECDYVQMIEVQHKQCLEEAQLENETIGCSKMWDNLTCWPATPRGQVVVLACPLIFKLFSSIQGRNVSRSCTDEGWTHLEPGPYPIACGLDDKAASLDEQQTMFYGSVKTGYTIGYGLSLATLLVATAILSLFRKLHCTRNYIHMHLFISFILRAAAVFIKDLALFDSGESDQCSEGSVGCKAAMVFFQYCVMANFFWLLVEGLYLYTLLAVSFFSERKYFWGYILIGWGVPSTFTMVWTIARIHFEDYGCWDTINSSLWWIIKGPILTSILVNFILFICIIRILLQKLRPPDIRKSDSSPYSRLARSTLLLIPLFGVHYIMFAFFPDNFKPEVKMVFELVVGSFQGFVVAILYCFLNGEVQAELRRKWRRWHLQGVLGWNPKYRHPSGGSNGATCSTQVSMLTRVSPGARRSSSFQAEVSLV


How the values were obtained:
[1] = system: NCI-H727 human non-small cell lung carcinoma cell line; experiment: NCI-H727 cancer cell proliferation assay (Alamar Blue); assay type: cell-based
Protocol: NCI-H727 is an adherent human non-small cell lung carcinoma cell line. The cells are grown in RPMI-1640 plus 2 mM L-Glutamine and 10% FBS and cells subcultured in the following manner: Medium was removed and cells were rinsed once in PBS solution. To harvest the cells 10 mls PBS containing 2 ml of trypsin-EDTA solution was added to a 75 ml flask. The flask was incubated at 37° C. until the cells detached. Fresh culture medium was added, aspirated and dispensed into new culture flasks. A split ratio of 1:3 to 1:4 was carried out 2 times per week. The 96-well assay was performed as follows: Day 1) Cells were seeded at 7000 cells/well in 0.2 ml complete medium/well and incubated overnight at 37° C. Day 2) Complete medium was aspirated from wells and 200 ul/well PBS was added and aspirated. Cells were then treated with peptides using the assay medium RPMI-1640 plus 2 mM L-Glutamine and 0.2% FBS at a final volume of 200 ul/well and incubated for 2 days. Day 4) Alamar Blue (10% of total volume) was added to wells and absorbance (530/590 nm) read at 0, 4, 6, 8, 10 and 24 hours.

VPAC2 = molecular target: T1, VPAC2; experiment: Receptor competition assay, 125I-PACAP27 binding to CHO membranes (VPAC2); settings: membranes of VPAC2-transfected CHO cells, 0.1 nM 125I-PACAP27
Description: In order to test for selective binding of the VPAC1 selective antagonist to the VPAC1, both the VPAC1 and VPAC2 receptors were expressed in CHO cells using the following procedure. The human VPAC1 and the VPAC2 were cloned via RT PCR from human heart mRNA and human testis mRNA, respectively, using TaqPlus Precision PCR System (Stratagene). The PCR products were subcloned into pCDNA3.1 (Invitrogen) for in vitro translation and mammalian expression. The cell line chosen for expression was the CHOcreluc line already expressing a cAMP response element-luciferase reporter along with Gα16. These cells were grown under hygromycin selection at 0.4 mg/ml. On the day of transfection, CHOcreluc cells at 70% confluency were washed with serum free media and transfected using Lipofectamine Plus Reagent (Gibco BRL). Stable pools were selected in the presence of 0.4 mg/ml hygromycin and 1.5 mg/ml G418. Once viably-frozen stocks had been made from these pools they were cloned by limiting dilution.
The capacity of the VPAC1 selective antagonist to selectively bind the VPAC1 as opposed to the VPAC2 receptor was measured using membranes prepared from CHO cells transfected with both receptors as described in Example 3. […] The filters were washed with cold 25 mM NaPO4 containing 1% BSA and counted in a gamma counter. […]

human VPAC1 [2] = molecular target: T2, human VPAC1; experiment: cell-based or functional assay
human VPAC1 [3] = molecular target: T2, human VPAC1; experiment: competition with 125I-PACAP27 on membranes of CHO cells expressing human VPAC1
Protocol: (§1) Cells were washed with phosphate buffered saline (PBS), scraped in homogenization buffer (10 mM Tris pH 7.4, 2 mM EDTA, 5 mM MgCl2, 1 mM PMSF), followed by centrifugation at 4000 g for 10 minutes at 4° C. The cell pellet was resuspended in homogenization buffer and homogenized using a Polytron. Membranes were collected by centrifugation at 30,000 g for 30 minutes at 4° C., resuspended in homogenization buffer, and stored at −80° C. until use. […] After incubating at 37° C. for 20 minutes, bound ligand was collected on GF/C filters pretreated with 0.1% polyethylenimine. The filters were washed with cold 25 mM NaPO4 containing 1% BSA and counted in a gamma counter. All reagents were purchased from Sigma unless otherwise indicated.

human VPAC1 [4] = molecular target: T2, human VPAC1; experiment: ratio of the VPAC2 and VPAC1 IC50 values, 125I-PACAP27 competition on CHO membranes
Protocol: as §1

Molecule | IC50 relative to reference compound R2P2 [1] | IC50 (VPAC2) | CHO VPAC1 cAMP inhibition (IC50 against 1 nM VIP) (human VPAC1 [2]) | IC50 (human VPAC1 [3]) | VPAC2/1 Selectivity (human VPAC1 [4])
HFDAVFTNSYRKVLKRLSARKLLQSIL (HELM PEPTIDE1{[ac].H.[dF].D.A.V.F.T.N.S.Y.R.K.V.L.K.R.L.S.A.R.K.L.L.Q.S.I.L.[am]}$$$$V2.0; SMILES CC[C@H](C)[C@H](NC(=O)[C@H](CO)NC(=O)[C@H](CCC(N)=O)NC(=O)[C@H](CC(C)C)NC(=O)[C@H](CC(C)C)NC(=O)[C@H](CCCCN)NC(=O)[C@H](CCCNC(=N)N)NC(=O)[C@H](C)NC(=O)[C@H](CO)NC(=O)[C@H](CC(C)C)NC(=O)[C@H](CCCNC(=N)N)NC(=O)[C@H](CCCCN)NC(=O)[C@H](CC(C)C)NC(=O)[C@@H](NC(=O)[C@H](CCCCN)NC(=O)[C@H](CCCNC(=N)N)NC(=O)[C@H](Cc1ccc(O)cc1)NC(=O)[C@H](CO)NC(=O)[C@H](CC(N)=O)NC(=O)[C@@H](NC(=O)[C@H](Cc1ccccc1)NC(=O)[C@@H](NC(=O)[C@H](C)NC(=O)[C@H](CC(=O)O)NC(=O)[C@@H](Cc1ccccc1)NC(=O)[C@H](Cc1c[nH]cn1)NC(C)=O)C(C)C)[C@@H](C)O)C(C)C)C(=O)N[C@@H](CC(C)C)C(N)=O, Synthetic VIP/GHRH hybrid peptide, not PEGylated; also called Peptide R2P16) [R2P16] | – | – | 50 nM | 17 nM | > 700 fold
Ac-H[dF]DAVFTNSYRKVLKRLSARKLLQDILC([maleimide-methoxy‑PEG 22 kD])-NH2 (also called PEGylated R2P3) [R2P3-PEG22kD] | – | – | 181 nM | 21 nM | > 480 fold
Ac-H[dF]DAVFTNSYRKVLKRLSVRKLLQDILC([maleimide-methoxy‑PEG 22 kD])-NH2 (also called PEGylated R2P11) [R2P11-PEG22kD] | – | – | 101 nM | 49 nM | > 200 fold

Now from value to molecule:

IC50 relative to reference compound R2P2 [1] | IC50 (VPAC2) | CHO VPAC1 cAMP inhibition (IC50 against 1 nM VIP) (human VPAC1 [2]) | IC50 (human VPAC1 [3]) | VPAC2/1 Selectivity (human VPAC1 [4]) | Molecule
three times lower | – | – | – | – | CC[C@H](C)[C@H](NC(=O)[C@H](CO)NC(=O)[C@H](CCC(N)=O)NC(=O)[C@H](CC(C)C)NC(=O)[C@H](CC(C)C)NC(=O)[C@H](CCCCN)NC(=O)[C@H](CCCNC(=N)N)NC(=O)[C@H](C)NC(=O)[C@H](CO)NC(=O)[C@H](CC(C)C)NC(=O)[C@H](CCCNC(=N)N)NC(=O)[C@H](CCCCN)NC(=O)[C@H](CC(C)C)NC(=O)[C@@H](NC(=O)[C@H](CCCCN)NC(=O)[C@H](CCCNC(=N)N)NC(=O)[C@H](Cc1ccc(O)cc1)NC(=O)[C@H](CO)NC(=O)[C@H](CC(N)=O)NC(=O)[C@@H](NC(=O)[C@H](Cc1ccccc1)NC(=O)[C@@H](NC(=O)[C@H](C)NC(=O)[C@H](CC(=O)O)NC(=O)[C@@H](Cc1ccccc1)NC(=O)[C@H](Cc1c[nH]cn1)NC(C)=O)C(C)C)[C@@H](C)O)C(C)C)C(=O)N[C@@H](CC(C)C)C(N)=O [Peptide R2P16] (HELM PEPTIDE1{[ac].H.[dF].D.A.V.F.T.N.S.Y.R.K.V.L.K.R.L.S.A.R.K.L.L.Q.S.I.L.[am]}$$$$V2.0)
– | > 10000 nM | – | – | – | R2P3-PEG22kD: R2P3 (SEQ ID NO 4) PEGylated at the C-terminal cysteine with 22 kD methoxy-PEG-maleimide (Ac-H[dF]DAVFTNSYRKVLKRLSARKLLQDILC([maleimide″-methoxy‑PEG 22 kD]); not fully specified (C-terminus); printed as HfDAVFTNSYRKVLKRLSARKLLQDILC*; also: C-terminal * undefined) [Peptide R2P3-PEG22kD]
– | > 10000 nM | – | – | – | R2P11-PEG22kD: R2P11 (SEQ ID NO 5) PEGylated at the C-terminal cysteine with 22 kD methoxy-PEG-maleimide (Ac-H[dF]DAVFTNSYRKVLKRLSVRKLLQDILC([maleimide-methoxy‑PEG 22 kD]); not fully specified (C-terminus); printed as HfDAVFTNSYRKVLKRLSVRKLLQDILC*; also: C-terminal * undefined)
